Among the data in article PMC6448830 (2019) are koff and Kd values, retold here.

Experiment in all cases: SPR
For orientation: Surface plasmon resonance follows binding to a sensor surface in real time, without labels.

Experiment [1] concerns the target T1, A. trivirgatus 2B4-Fc fusion protein (Aotus trivirgatus).
T1 chain: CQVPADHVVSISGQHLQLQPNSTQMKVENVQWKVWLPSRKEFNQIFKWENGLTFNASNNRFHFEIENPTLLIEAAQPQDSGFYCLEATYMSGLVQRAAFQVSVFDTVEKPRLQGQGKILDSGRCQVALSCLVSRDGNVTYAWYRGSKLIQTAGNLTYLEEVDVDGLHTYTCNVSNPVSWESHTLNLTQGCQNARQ

Experiment [2] concerns the target T2, human 2B4-Fc fusion protein (human, UniProt Q9BZW8 22-229).
T2 chain: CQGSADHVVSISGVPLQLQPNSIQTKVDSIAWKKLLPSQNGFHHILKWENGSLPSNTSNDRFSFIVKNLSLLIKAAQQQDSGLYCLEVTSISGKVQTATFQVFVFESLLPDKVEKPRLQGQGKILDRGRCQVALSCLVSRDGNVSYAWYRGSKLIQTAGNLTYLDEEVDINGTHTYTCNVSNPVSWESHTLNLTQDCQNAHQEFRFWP

Experiment [3] deals with T2, human 2B4-Fc fusion protein.

B1: A. trivirgatus CD48-Fc fusion protein (Fc fusion)
chain: TSIQGNSVDVINAISGGNVTLNISESLPENVREITWFCTYHQKIADWDVKRLKYFDNKFKGRVRLDYQSGALYISKIQKEDANIYIMRVLKETMYEQEWKIRLQVFDPVPKPDIKIEKTAKVEDDCYLKLSCVIPDESVNYTWYGDKEPFPKEFQSGVLETTLKSQDYSRCYTCQVSNPVSSKNDTVCFS
modifications: biotin (biotinylated host CD48-Fc in the blocking ELISA)
In the case of B1, in experiment [1], the koff (commonly a measure of how fast the partners let go of each other) turned out to be 0.000489 s⁻¹.

B2: human CD48-Fc fusion protein (Fc fusion)
chain: QGHLVHMTVVSGSNVTLNISESLPENYKQLTWFYTFDQKIVEWDSRKSKYFESKFKGRVRLDPQSGALYISKVQKEDNSTYIMRVLKKTGNEQEWKIKLQVLDPVPKPVIKIEKIEDMDDNCYLKLSCVIPGESVNYTWYGDKRPFPKELQNSVLETTLMPHNYSRCYTCQVSNSVSSKNGTVCLSPPCTLARS
modifications: biotin (biotinylated hCD48-Fc in the blocking assays)
For the molecule B2, binding in experiment [2] was put at a Kd of 0.023 µM. In addition, in experiment [3], the koff turned out to be 0.0224 s⁻¹.
